From US6410248

What was measured:
[1] = test system: TATA box-selected zinc finger protein (Zif268 variant, boxed clone FIG. 3A) (artificial); assay: EMSA; details: same buffer, 5 mM MgCl2, 20 uM ZnSO4, pH 7.9
[2] = test system: NRE-selected zinc finger protein (Zif268 variant, boxed clone FIG. 3C) (artificial); assay: EMSA; details: same buffer, 5 mM MgCl2, 20 uM ZnSO4, pH 7.9
[3] = test system: p53 site-selected zinc finger protein (Zif268 variant, boxed clone FIG. 3B) (artificial); assay: EMSA; details: same buffer, 5 mM MgCl2, 20 uM ZnSO4, pH 7.9
[4] = target: Zif268 zinc fingers 1-3 (wild type) (UniProt P08046); assay: competition; details: nonspecific over specific dissociation constant ratio; calf thymus competitor in EMSA
[5] = test system: NRE-selected zinc finger protein (Zif268 variant, boxed clone FIG. 3C) (artificial); assay: competition; details: nonspecific over specific dissociation constant ratio; calf thymus competitor in EMSA
[6] = test system: TATA box-selected zinc finger protein (Zif268 variant, boxed clone FIG. 3A) (artificial); assay: competition; details: nonspecific over specific dissociation constant ratio; calf thymus competitor in EMSA
[7] = test system: p53 site-selected zinc finger protein (Zif268 variant, boxed clone FIG. 3B) (artificial); assay: competition; details: nonspecific over specific dissociation constant ratio; calf thymus competitor in EMSA

AGGGGGGCTATAAAAGGGGGT (double strand) [TATA box site]
Kd [1]: 0.12 nM

GCCGTCAAGGGTTCAGTGGGG (double strand) [NRE site]
Kd [2]: 0.038 nM

GCTGTTGGGACATGTTCGTGA (double strand) [p53 binding site]
Kd [3]: 0.11 nM

calf thymus DNA
binding signal (fold (Kdns/Kd)) [4]: 31000 | DNA-binding specificity ratio (nonspecific Kd / specific Kd) (fold (Kdns/Kd)) [5]: 36000 | DNA-binding specificity ratio (nonspecific Kd / specific Kd) (fold (Kdns/Kd)) [6]: 25000 | DNA-binding specificity ratio (nonspecific Kd / specific Kd) (fold (Kdns/Kd)) [7]: 54000
